From patent US20220387579A1

Biological target: RSV F A strain Viral Protein (Respiratory Syncytial Virus A strain)
Test: SPR

Substance: Palivizumab
- Kd: 0.26 nM
